What was measured:
[1] = molecular target: Bacteroidetes bacterium GWA2_30_7 CuZn superoxide dismutase (BbCuZnSOD) (Bacteroidetes bacterium GWA2_30_7); test: SEC-MALS; size-exclusion chromatography coupled static light scattering (SEC-SLS), masses from refractive index; 20 mM Tris-HCl pH 7.4, 150 mM NaCl
[2] = molecular target: Rickettsiales bacterium TMED131 CuZn superoxide dismutase (RbCuZnSOD) (Rickettsiales bacterium TMED131); test: as above

## Bacteroidetes bacterium GWA2_30_7 CuZn superoxide dismutase (BbCuZnSOD) (enzyme)
[1]
  stoichiometry N: 2

## Rickettsiales bacterium TMED131 CuZn superoxide dismutase (RbCuZnSOD) (enzyme)
[2]
  stoichiometry N: 2
